From the nanobody polyreactivity screen of Harvey et al. (2022)

Test: yeast display, Sf9 membrane polyspecificity reagent, FACS + sequencing; frameworks hold sequencing errors
Method in brief: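 In a synthetic yeast display library (Saccharomyces cerevisiae BJ5465), nanobody expression was induced with galactose for 36–48 hours. FACS gates were set low and high (top ~1%) using anti-HA fluorescence for expression and streptavidin fluorescence for binding of the Sf9 membrane reagent. Each polyreactivity label is drawn from the gate of origin.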

Row | Sequence | polyreactivity (PSR sort gate)
1 | QVQLVESGGGLVQAGGSLRLSCAASGRTFHGYGMGWYRQAPGKERELVAAISWSGGSTYYADSVKGRFTISRDNAKNTVYLHMNSLKAEDTAVYYCAADVYRYWISEYDDYWGQGTQVTVSS | low polyreactivity
2 | QVQLVESGGGLVQAGGSLRLSCAASGLTFRNYAMGLYRQAPGKERELDAAISRSGGSTYYADSVKGRFTISRDYAKNTVYLHMNSLKPEDTAVYYCATRTYRESTYDYWGQGTQVTVSS | high polyreactivity
3 | QVQLVESGGGLVQAGGSLRLSCAASGRIFWGYDMGWYRQAPGKEREFVAAISSGGGRKYYADSVKGRFTISRDNAKNTVYLQMNSLKPEDTAVYYCNAELNWYYYIHLDYWGQGTQVTVSS | low polyreactivity
4 | QVQLVESGGGLVQAGGSIRLSCAASGFIFQRYSMGWYRQAPGKERELVAAISSSGGSTYYADSVKGRFTISRDNAKNTVYLQMNSLKPEDTAVYYCAARVPPRTLAYYYWGQGTQVTVSS | high polyreactivity
5 | QVQLVESGGGLVQAGGSLRLSCAASGSIFFHYAMGWYIQAPGKERELVAAITWDGGSTYYADSVKGRFTISRDNAKNTVYLQMNSLKPEDTAVYYCNADQDLSTDEDYWGQGTQVTVSS | low polyreactivity
6 | QVQLVESGGGLDQAGGSLRLSCAASGSTFKHNAMGWYRQAPGKERKLVAGISWGGSSTYYADSVKGRFTISRDNAKNTVYLQMNSLKPEDTAVYYCAKGGYRRYGYDYWGQGTQETVSS | low polyreactivity
7 | QVQLVESGGGLVHAGGSLRLSCAASGSTLQVYAMGWYREAPGIERELVAVITFSGGRTYYADSVKGRFTISRDTAKNTVYLQMNSLKPEDTADYYPAARYYWGQGTQVTVSS | high polyreactivity
8 | QVQLVESGGGLVQAGGSLRLSCAASGSTFGLYAMGWYRQAPGKERELVAAITSTGGSTYYADSVKGRFTISRDNAKNTVYLQMNSLKPEDTAVYYCARDYRSGYDYWGQGTQVTVSS | low polyreactivity
9 | QVQLVESGGGLVQAGGSLRLSCAASGSTFAQYAMGWYRQPPRKERELVAAISRRGASTYYADSVKGLFTISRDIAKNTVYLQMNSLKPEDTAVYYCNAVRGEKMGYWGQGTQVTVSS | high polyreactivity
10 | QVQLVESGGGLVQAGGSLRLSCAGSGITFVAYAMGWYRQAPGKDRELVAAISGGGGSTYYADSVKGRFTISRDNAKNTVYLQMNSLKPEDTAVYDCNAEPYTSSGGYRGYDFDYWGQGTQVTVSS | low polyreactivity
11 | QVQLVESGGGLVQAGGRLRLSCAASGSTFKSYVMGGSRQAPGKERELVAAISSGDSTYYADSVKGRFTISRDNAKNTVNLQMNSLKPEDTAVYYCAADPGYTVEPWEDDYWGQGTQVTVSS | low polyreactivity
12 | QVQLVESGGGLVQAGGSLRLSCAASGFNFARNTMGWYRQAPGKERELVAAISSSGGSTYYADSVKGRFTISRDNAKNTVYLQMNSLKPEDTAVYYCNKGYTGLYGYDYWGQGTQVTVSS | high polyreactivity
13 | QVQLVESGGGLVQAGGSLRLSCAASGRPSSLMNMGWYRQAPGKERELVAAISTSGGSTYYADSVKGRFTISRDNAKNTVYLQMNSLKPEDTAVYYCAATIGRRSYNQMYYWGQGTQVTVSS | high polyreactivity
14 | QVQLVESGVCLVQAGGSLRLSCAASGRIFYNYAMGWYRQAPGKERELVADISSSGTLTYYSDSVKGRFTISRDNAKNTVYLHMNSLKPEDTAVYYCAARYWFRFQYDYWGQGTQLTVSS | high polyreactivity
15 | QVQLVESGGGLVQAGGSLRLSCAASGRIFAYYAMGWYRQAPGKERELVAAISSGGSTKYADSVKGRFTISRDNAKNTVYLQMNSLKPEDTAVYYCAAKYGYRKYRGFQNGGDYWGQGTQVNVSS | high polyreactivity
16 | QVQLVESGGGLVQAGGSLRLSCAASGRIFKFYDMGWYREAPGKERELVAAISHAGRTNYADSVKGRFTISRDNAKNTVYLQMNSLKPEDTAVYYCNTDYILVRGVPWYYKLDYWGQGTQVTVSS | high polyreactivity
17 | QVQLVESGGGLVQAGGSLRLSCAASGIIFRLNAMGWYRQAPGKERELVAAIRRRGGSTYYADSVKGRFTISRDIAKNTVYLQMNSLKPEDTAVYYCAKDPHGSDFGYWGQGTQVTVSS | low polyreactivity
18 | QVQLEESGGRLLQAGGSLRLSCAASGCTFGSYDMGLYRQAPGKERELVARISSDGSTNYADSVKGRFSISRDNAKNTVYLQMNSLKPEDTAGYYCARDRKRQADDIGEFDYWGQGSQVTVSS | low polyreactivity
19 | QVQLVESGGGLVQAGGSLRLSCAASGSIFVTYAMGWYRPAPGKERELVAAISTSGGSTYADSVKGRFTISRDNAKNTVYLQMNSLKPVDTAVYYCNADDPGYAVPWYWFKYDYWGQGTQVTVSS | low polyreactivity
20 | QVQLVESGGRLVQAGGSLRLSCAASGGTFRVYAMGWNRQAPGKEIEFVAAISAHGGRTYYADSVKGRFTISRDNAQNTVYLQLNSLKPEDTAVYYFYNRLPNSQDGTSAHYTYYSWGQGTQVTVSS | low polyreactivity
21 | QVQLVESGGGLVQAGGSLRLSCAASGITFYTYTMGWYRQAPGKERELVAAISRSSGRTYYADSVKGRFTISRDNAKNTVYLQMNSLKPEDTAVYYCAAYAVESYKYDYWGQGTQVTVSS | high polyreactivity
22 | QVQLVESGGGLVQAGGSLRISSAASGSTNYPNAMGWYRQAPGKERELVAVIRWSGGSTYYADSVKGRFTISRDNAKNTVYLQMNSLKPEDTAVYYCNADFYRVAYLRRYSHFDYWGQGTQVTVSS | high polyreactivity

Row | Sequence | polyreactivity (PSR sort gate)
23 | QVQLVESVGGLVQAGGSLRLSCAASGSTFGRNAMGWYRQAPGKERELVAAISSRGGGTYYADSVKGRFTISRDNAKNTVYLQMNSLKPEDTAVYYCAATYGYRRRNHYNYWGQGTQVTVSS | high polyreactivity
24 | QVQLVESGGGLVQSGGSLRLSCAASGRIFDENAMGWYRQAPGKERELVAAITGGDSTNYADSVKGRFTISRDNAKNTVYLQMNSLKPEDTAVYYCAVDVIYYWAEDYDYWGQGTQVTVSS | low polyreactivity
25 | QVQLVESGGGLVQAGGSLRLSCAASGFTFKHYAMGWYRQAPGKEREFVAAITGSGGSTYYADSVKGRFTISRDNAKITVYLEMNSLKPEDTAVYYCAASDVSRYRPYRRFDYWGQGTQVTVSS | high polyreactivity
26 | QVQLVESGGGLVQAGGSLRLSCAASGRTFPSNVMGRYIQAHGKERELVAGITWRGGSTYYADSVKGRFTISRDNAKYTVYLQINSLKPEDTAVYYCAVRTQYRRYEYWGHGTQVTVSS | high polyreactivity
27 | QVQLVESGGGLVQAGGILRLSCAASGSTIEFNAMGWYRPAPGKERELVAAISGSGASTYYADSVKGRFTISRDNAKNTVYLQMNSLTPEDTAVYYCNADSLYYDYQTVVVQALDYWGQGTQVTVSS | low polyreactivity
28 | QVQLVESGGGLVQAGGSLRLSCAASGSIFIVYAMGWYRQAPGKERELVAAISWSGGSTYYADSVKGRFTISRDNAKNTVYLQMNSLKPEDTAVYYCAAKYTLPFRDVKYYSWGQGTQVTVSS | high polyreactivity
29 | QVQLVESGGGLVQAGGSLRLSCAASGFTFYKYAMGWYRPAPGKERELVAAITWSGGRTYYADSVKGRFTISRDNAKNTVYLKMNSLKPEDTAVYYCTARQKQGNFDYWGQGTQVTVSS | high polyreactivity
30 | QVQLVESGGGLVQAGGSLRLSCAASGSIFAAYTMGWYRQAPGKERELVAAISVSTVSTYYADSVKGRFTISRDNAKNTVYLLMNSLKPEDTAVYYCNAVATDSYPEKDEHDSWGQGTQVTVSS | low polyreactivity
31 | QVQLVESGGGLVQAGGSRRLSCAASGSIFDYYVMGWYRQAPVKERELVAAISWSGASTYSADSVKGRFTISRDNAKNTVYLQMNSLKPEDTAVYYCAADYGVNTLIDYDYWGQGTQVTVSS | low polyreactivity
32 | QGQLVESGGGLDQAGGSLRLSCAASGSTFPVYAMGLYRQAPGKDRELVAAITSGVSTNYADSVKGRFTISRDNAKNTVYVQKNSMKPEDTAVYYCAKEFGLLPIRDYYWGQGTQVTESS | low polyreactivity
33 | QVQLVESGGGLVQAGGSLRLSCAASGRTFVNYTMGWDRQAPGKERELVAAIRYRDGSTYYADSVKGRFTISRDNAKNTVYLQMNSLKPEDTAVYYCNTRITQVGDYIYDYWGQGTQVTVSS | low polyreactivity
34 | QVQLVESGGGLVQAGGSLRLSCAASGLILDGNVMGWYRQAPGKERELVAAINTSGGSTYYADSVKGRFTISRDNAKNTVYLQMNSLKPEDTAVYYCAARYPSDYDYWGQGTQVTVSS | low polyreactivity
35 | QVQLVESGGGLVQAGGSLRLSCDASGSIFDRYVMGWYRQAPGKERELVAAITTSGDGTYYADSVKGRFTISRDNAKNSVYLQMNSLKREDTAVYYCAAVRRSWKYSTSDYWGQGTQVTVSS | low polyreactivity
36 | QVQLVESGGCLVQAGGSLRLICAASGSTFRRYAMGWYRQAPGKERELVATISKSGGSTYYADSVKGRFTISRDNAKNTVYLQMNSLKPEDTAVYYCAARSFFYRVSDRRAYIDTNGYWGQGTQVTVSS | high polyreactivity
37 | QVQHEDSGGGLVQAGGSHPLSCAASGSTFRVNAMGWYRQAPGKERELVAAISRRGGSTYYADSVKGRFTISRDNSKNTVYLQMNCLKPEDTAVYYCAAERLGTVQDDYWGQGTQVTVSS | high polyreactivity
38 | QVQLEESGGGLVQAGGSLRLSCAASGSILVAYAMGWYRQAPGKERELVAAISSVGNTYYADSVKGRFTISRDNAKNTVYLQMNSLKPEDTAVYYCNAVYRVWYAEWSTVGSPHDYWGQGTQVTVSS | low polyreactivity
39 | QVQLVESGGGLVQAGGSLRLSCAASGSTFKWYAMGWYRQAPGKERELVAAINWSSGRTYYADSVKGRFTISRDNAKNTVYLQMNSLKPEDTAVYYCAAEAGYFSWRTMDYWGQGTQVTVSS | high polyreactivity
40 | QVQLVESGGGLVQAGGSLRLSCAASVRTFYYYAMGWYRQAPGKERELVAAIRWSTGSTYYADSVKGRFTISRDNAQNTVYLQMNSLKPEDTAVYYCAADTWYIQWGYYWGQGTQVTVSS | low polyreactivity
41 | QVQLVESGGGLVQAGGSLRLSCAASGFIFYHYAMGWYRQAPGKERELVAAISGRGGSTYYADSVKGRFTISRDNAKNTVYLQMNSLKPEDTAVYYCATDYSRTFDYWGQGTQVTVSS | high polyreactivity
42 | QVQLVESGGGLVQAGGSLRLSCAASGSIFTGYTMGWYRPAPGKEREFVAAIRATGGSTYYADSVKGRFTISRDNAKNTVYLQMNSLKPEDTAVYYCAVRSGVGSVRKRYGYWGQGTQVTVSS | high polyreactivity
43 | QVQLVESGGGLVQAGGSLRLSCAASGSTFSQYAMGWYRQAPGKERELVAAITGSTGSTYYADSVKGRFTISRDNAKNTVYLQMNSLKPEDTAVYYCAAVSSNARHVSRRRGYYWGQGTQVTVSS | high polyreactivity
